Assays:
[1] = target: T1, human CXCR4 (human, UniProt P61073-2 2-356); assay: competition binding vs [125I]-CXCL12, HEK293T-CXCR4 membranes
[2] = target: T1, human CXCR4; assay: competition binding vs [125I]-238D4, HEK293T-CXCR4 membranes
[3] = target: T1, human CXCR4; assay: competition binding vs [125I]-238D2, HEK293T-CXCR4 membranes
[4] = target: T1, human CXCR4; assay: cell-based or functional assay
[5] = target: T1, human CXCR4; assay: competition with [125I]-238D4, membranes of HEK293T cells expressing CXCR4
[6] = target: T2, CXCR3 (UniProt P49682 1-368); assay: total binding of [125I]-238D4 to membranes of HEK293T cells expressing CXCR4 or CXCR3, without (-) and with 3 µM AMD3100
T2 construct: whole, on cells; also called chemokine receptor CXCR3
T2 sequence (looked up): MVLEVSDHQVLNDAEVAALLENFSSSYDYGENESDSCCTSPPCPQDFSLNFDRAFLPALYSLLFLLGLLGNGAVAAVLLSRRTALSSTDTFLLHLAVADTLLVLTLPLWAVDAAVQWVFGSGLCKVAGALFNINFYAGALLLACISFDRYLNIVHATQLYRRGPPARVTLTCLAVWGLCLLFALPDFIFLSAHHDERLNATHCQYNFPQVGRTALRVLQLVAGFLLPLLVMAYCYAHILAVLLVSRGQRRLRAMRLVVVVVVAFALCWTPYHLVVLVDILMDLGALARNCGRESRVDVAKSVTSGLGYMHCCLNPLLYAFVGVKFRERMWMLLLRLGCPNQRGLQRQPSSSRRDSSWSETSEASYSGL

[7] = target: T1, human CXCR4; assay: competition with [125I]-238D2, membranes of HEK293T cells expressing CXCR4
[8] = target: T1, human CXCR4; assay: cell-based or functional assay; remark: listed apart in the source
[9] = target: T1, human CXCR4; assay: competition with [125I]-CXCL12, membranes of HEK293T cells expressing CXCR4
[10] = target: T1, human CXCR4; assay: competition binding vs [125I]-CXCL12, HEK293T-CXCR4 membranes
[11] = target: constitutively active CXCR4 mutant N119A (UniProt P61073 1-352); assay: cell-based or functional assay
[12] = target: T1, human CXCR4; assay: periplasm fraction (1:10), inhibition of [125I]-CXCL12 binding, HEK293T-CXCR4 membranes; - = 0-29%, + = 30-69%, ++ = 70-100%; periplasma fraction in the clone screen, tracer [125I]-CXCL12; 30-69% inhibition
[13] = target: T1, human CXCR4; assay: competition binding vs [125I]-238D4, HEK293T-CXCR4 membranes; purified Nanobody up to 0.5 µM, tracer [125I]-238D4
[14] = target: T1, human CXCR4; assay: competition binding vs [125I]-238D2, HEK293T-CXCR4 membranes; purified Nanobody up to 0.5 µM, tracer [125I]-238D2
[15] = target: T1, human CXCR4; assay: competition binding vs [125I]-CXCL12, HEK293T-CXCR4 membranes; purified Nanobody up to 0.5 µM, tracer [125I]-CXCL12
[16] = target: T2, CXCR3; assay: total binding of [125I]-238D2 to membranes of HEK293T cells expressing CXCR4 or CXCR3, without (-) and with 3 µM AMD3100
[17] = target: T1, human CXCR4; assay: competition binding vs [125I]-CXCL12, HEK293T-CXCR4 membranes; remark: listed apart in the source

T1 sequence (P61073 other isoform, or with tags, fused parts or gaps): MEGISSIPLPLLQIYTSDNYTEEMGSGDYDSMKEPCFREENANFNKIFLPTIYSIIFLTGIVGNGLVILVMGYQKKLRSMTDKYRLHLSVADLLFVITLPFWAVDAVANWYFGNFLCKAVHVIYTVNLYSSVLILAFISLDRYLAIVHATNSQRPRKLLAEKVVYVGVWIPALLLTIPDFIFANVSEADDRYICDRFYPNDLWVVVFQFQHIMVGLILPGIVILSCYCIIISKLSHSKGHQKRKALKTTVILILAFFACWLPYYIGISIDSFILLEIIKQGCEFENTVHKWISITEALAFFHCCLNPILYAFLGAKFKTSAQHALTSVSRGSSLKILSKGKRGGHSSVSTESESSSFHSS
Sequence of constitutively active CXCR4 mutant N119A (P61073 whole entry N119A): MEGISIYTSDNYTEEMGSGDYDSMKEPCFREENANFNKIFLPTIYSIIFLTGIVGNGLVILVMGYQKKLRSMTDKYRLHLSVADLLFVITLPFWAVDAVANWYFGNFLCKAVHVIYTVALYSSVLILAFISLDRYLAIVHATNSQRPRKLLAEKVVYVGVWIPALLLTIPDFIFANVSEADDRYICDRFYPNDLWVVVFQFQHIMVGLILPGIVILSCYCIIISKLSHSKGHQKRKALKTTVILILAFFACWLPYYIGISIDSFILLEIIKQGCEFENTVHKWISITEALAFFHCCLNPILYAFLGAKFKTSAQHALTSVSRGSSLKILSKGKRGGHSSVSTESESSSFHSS

Work on monoclonal antibody 12G5 yielded a maximal displacement [1] of 54%, a pKi [1] of 9.19 and a maximal displacement [2] of 90%. It also gave a pKi [2] of 9.31, a maximal displacement [3] of 89% and a pKi [3] of 9.65.

B1: Nanobody 238D4 (VHH)
VHH: EVQLMESGGGLVQAGGSLRLSCAASGRTFNNYAMGWFRRAPGKEREFVAAITRSGVRSGVSAIYGDSVKDRFTISRDNAKNTLYLQMNSLKPEDTAVYTCAASAIGSGALRRFEYDYSGQGTQVTVSS
notes: Monovalent llama VHH; also called 238G3; 238D4, G3
In the case of B1, the “CRE activation, HEK293T-CXCR4-CREbgal/0.01-100 nM CXCL12: pKi or pIC50 (pKB from the Schild plot by the text)” value [4] is reported as 7.7, the “Chemotaxis, Jurkat/0.3 nM CXCL12: pKi or pIC50” value [4] is reported as 8.31 and the “IP accumulation, HEK293T-CXCR4-Gαqi5/30 nM CXCL12: pKi or pIC50” value [4] is reported as 8.39. For the same molecule, the “IC50 (read off the curve)” value [5] was ~4 nM, the binding result [6] was “no binding (tested: 3 nM)” and the “IC50 (read off the curve)” value [7] was ~3 nM. The “migration of Jurkat cells towards 0.3 nM CXCL12 (ChemoTx): IC50 (read off the curve)” value [8] was ~8 nM, the pKi [2] was 8.55 and the “IC50 (read off the curve)” value [9] was ~10 nM. For the same molecule, the maximal displacement [10] was 99%, the pKi [10] was 8.22 and the “reduction of the constitutively increased basal inositol phosphate accumulation, HEK293T-CXCR4 (N119A)” value [11] was 49%. It also gave a pKi [3] of 8.8.

B2: Nanobody 237A6 (VHH)
VHH: EVQLVESGGGLVQAGGSLRLSCAASGSIFSLNAMGWYRQAPGKQRELVAGITSSTSTYYADSVKGRFTISRDNTKNTVYLQMNSLKPEDTAVYYCNVDCPDYYSDYECPLEDRGQGTQVTVSS
notes: Monovalent VHH
With B2 the “percent inhibition of specific [125I]-CXCL12 binding” value (“percent inhibition of specific” for short) [12] was 30 to 69%, the pKi [13] was < 6.3 and the pKi [14] was < 6.3. The pKi [15] was < 6.3.

B3: Nanobody 238D2 (VHH)
VHH: EVQLVESGGGLVQTGGSLRLSCAASGFTFSSYAMSWVRQAPGKGLEWVSGIKSSGDSTRYAGSVKGRFTISRDNAKNMLYLQMYSLKPEDTAVYYCAKSRVSRTGLYTYDNRGQGTQVTVSS
notes: Monovalent llama VHH; Tested as phage, as periplasm fraction and purified; also called 238C1; 238C1, D2
B3: no binding (tested: 3 nM) [16].

B4: Nanobody 238C5 (VHH)
VHH: EVQLMESGGGLVQAGGSLRLACAASGFTFEDYAIGWFRKAPGKEREGVSCISGSDGSTTYADSVKGRFTISTDNAKNTVYLEMNSLKPEDTAVYYCAQQYGVGGRVVCPGPYEYDVWGQGTQVTVSS
notes: Monovalent VHH; also called 238C5, G2, xH5, 238C3, D6, E6
In the case of B4, the pKi [2] is reported as < 7, the maximal displacement [10] is reported as 0% and the pKi [10] is reported as < 6.3. For the same molecule, the pKi [3] was < 7.

B5: Nanobody 237G7 (VHH)
VHH: EVQLVESGGGLVQPGGSLRLSCAASSFIGNYHAIVWLRQAPGKELEGVSCITSRDSITYYASFVKGRFTISRDDAKNTVYLQMNNLKPEDTAVYYCAVBTSMTCPTLIVRFNYRGQGTQVTVSS
notes: Monovalent VHH
For B5, the “percent inhibition of specific” value [12] was 30 to 69%, the pKi [13] was < 6.3 and the pKi [14] was < 6.3. The pKi [15] was < 6.3.

B6: 238D2-20GS-238D4 (VHH)
chain: EVQLVESGGGLVQTGGSLRLSCAASGFTFSSYAMSWVRQAPGKGLEWVSGIKSSGDSTRYAGSVKGRFTISRDNAKNMLYLQMYSLKPEDTAVYYCAKSRVSRTGLYTYDNRGQGTQVTVSSGGGGSGGGGSGGGGSGGGGSEVQLMESGGGLVQAGGSLRLSCAASGRTFNNYAMGWFRRAPGKEREFVAAITRSGVRSGVSAIYGDSVKDRFTISRDNAKNTLYLQMNSLKPEDTAVYTCAASAIGSGALRRFEYDYSGQGTQVTVSS
For B6, the “reduction of the constitutively increased basal inositol phosphate accumulation, HEK293T-CXCR4 (N119A)” value [11] was 65%.

B7: Nanobody 237D2 (VHH)
VHH: EVQLVESGGGLVQPGGSLRLSCAASGFTFDDYAMSWVRQAPGKGLEWVSAISWNGGSTDYADSVKGRFTISRDNAKNTLYLQMNSLKSEDTAEYYCARDQGPFYSGTYYYTRQYGYRGQGTQVTVSS
notes: Monovalent VHH; also called 237B6, A5, D2, D3, E4, F4, G2, G4, xH5, 237F1, C5, G1
With B7 the pKi [13] was < 6.3, the pKi [14] was < 6.3 and the pKi [15] was < 6.3.

B8: 238D2-15GS-238D4 (VHH)
chain: EVQLVESGGGLVQTGGSLRLSCAASGFTFSSYAMSWVRQAPGKGLEWVSGIKSSGDSTRYAGSVKGRFTISRDNAKNMLYLQMYSLKPEDTAVYYCAKSRVSRTGLYTYDNRGQGTQVTVSSGGGGSGGGGSGGGGSEVQLMESGGGLVQAGGSLRLSCAASGRTFNNYAMGWFRRAPGKEREFVAAITRSGVRSGVSAIYGDSVKDRFTISRDNAKNTLYLQMNSLKPEDTAVYTCAASAIGSGALRRFEYDYSGQGTQVTVSS
B8 was tested, and the “reduction of the constitutively increased basal inositol phosphate accumulation, HEK293T-CXCR4 (N119A)” value [11] was 64%.

B9: Nanobody 237D1 (VHH)
VHH: EVQLVESGGGLAQPGGPLRLTCEASGVIYSVNDMGWYRQAPGKQRELVAVITSGGGTNYVDSVKGRFTISGDNRKKTVYLQMNSLKPEDTAVYYCSIYYSSGISTLRSWGQGTQVTVSS
notes: Monovalent VHH
B9 was tested, and the “percent inhibition of specific” value [12] was 30 to 69%, the pKi [13] was < 6.3 and the pKi [14] was < 6.3. The pKi [15] was < 6.3.

B10: 238D4-20GS-238D4 (VHH)
chain: EVQLMESGGGLVQAGGSLRLSCAASGRTFNNYAMGWFRRAPGKEREFVAAITRSGVRSGVSAIYGDSVKDRFTISRDNAKNTLYLQMNSLKPEDTAVYTCAASAIGSGALRRFEYDYSGQGTQVTVSSGGGGSGGGGSGGGGSGGGGSEVQLMESGGGLVQAGGSLRLSCAASGRTFNNYAMGWFRRAPGKEREFVAAITRSGVRSGVSAIYGDSVKDRFTISRDNAKNTLYLQMNSLKPEDTAVYTCAASAIGSGALRRFEYDYSGQGTQVTVSS
notes: Bivalent Nanobody, 20-residue GS linker; also called L13
B10 was tested, and the “Rel. potency (relative to monovalent 238D4)” value [17] was 4.4 fold and the pKi [17] was 8.85.

From patent US20110206660A1 (Ablynx, published 2011)
